In publication PMC2568806, “Two Estrogen Response Element Sequences Near the PCNA Gene Are Not Responsible for Its Estrogen-Enhanced Expression in MCF7 Cells”:

B1: consensus ERE (dsDNA)
DNA 1: GGATCTAGGTCACTGTGACCCCGGATC
DNA 2: GATCCGGGGTCACAGTGACCTAGATCC
B2: PCNA-ERE1 (dsDNA)
DNA 1: GGGAGTTTGAGGCCAGCCTGACCAACATTG
DNA 2: CAATGTTGGTCAGGCTGGCCTCAAACTCCC

Tests used:
[1] = molecular target: T1, recombinant estrogen receptor alpha (rERα) (UniProt P03372 1-595); experiment: EMSA, supershift; HESC nuclear extract; 25 mM Tris-HCl pH 8.0, 50 mM KCl, 6.25 mM MgCl2, 10% glycerol, 0.5 mM DTT; 5 µg HESC nuclear extract + 170 nM rERα; 5% acrylamide gel in TBE; temperature not stated; details: protein: commercial; chain copies: 2; label: 32P 5' end; blunt
T1 sequence (P03372 whole entry): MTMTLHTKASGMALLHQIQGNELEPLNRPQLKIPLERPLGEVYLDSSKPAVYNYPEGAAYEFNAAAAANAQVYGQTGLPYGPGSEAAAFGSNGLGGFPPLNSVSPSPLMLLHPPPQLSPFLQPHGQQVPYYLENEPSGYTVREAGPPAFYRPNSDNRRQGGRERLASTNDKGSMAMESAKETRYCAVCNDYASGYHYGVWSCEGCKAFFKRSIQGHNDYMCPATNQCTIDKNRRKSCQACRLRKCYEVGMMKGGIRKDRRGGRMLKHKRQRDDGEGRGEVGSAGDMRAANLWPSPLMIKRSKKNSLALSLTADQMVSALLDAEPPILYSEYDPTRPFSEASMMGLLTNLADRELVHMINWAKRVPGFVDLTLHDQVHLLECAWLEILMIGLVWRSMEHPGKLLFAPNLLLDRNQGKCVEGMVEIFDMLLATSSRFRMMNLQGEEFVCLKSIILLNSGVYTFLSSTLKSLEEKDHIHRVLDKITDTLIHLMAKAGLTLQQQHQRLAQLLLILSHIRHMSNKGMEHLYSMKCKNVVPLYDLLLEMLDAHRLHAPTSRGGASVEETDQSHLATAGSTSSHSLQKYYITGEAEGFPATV

[2] = molecular target: T1, recombinant estrogen receptor alpha …; experiment: EMSA, supershift; HESC nuclear extract; weaker than consensus ERE, stronger than PCNA-ERE2; 25 mM Tris-HCl pH 8.0, 50 mM KCl, 6.25 mM MgCl2, 10% glycerol, 0.5 mM DTT; 5 µg HESC nuclear extract + 170 nM rERα; 5% acrylamide gel in TBE; temperature not stated; details: protein: commercial; chain copies: 2; blunt

Binder | binding result [1] | binding result [2]
B1 | binds | –
B2 | – | binds
